Key:
[1] = GDP-mannose-3,5-epimerase candidate screening (GDP-D-mannose to GDP-L-galactose); format: biochemical; conditions: enzymatic screening of candidates
Protocol: The reaction conditions were: 2 mM GDP-D-mannose, 1 mM NAD^+, 50 mM Tris-HCl, pH 8.0 and with or without 0.33 mg/mL At GME. The reactions were incubated at room temperature for 16 hours, quenched by heating at 99° C. for 10 mins, and analyzed using HPLC.

[2] = GDP-L-fucose inhibition assay of GMD enzymes (GDP-4-keto-6-deoxymannose detection); format: biochemical; conditions: 350 μM GDP-L-fucose; 1 mM GDP-mannose, 0.5 mg/mL GMD
Protocol: To test for inhibition, the mutants were expressed and purified as described in Example 7, and assayed at a range of GDP-L-fucose concentrations. The assay conditions were as follows: 50 mM Tris pH 7.5, 1 mM GDP-mannose, 0.5 mM NADP^+, 0.5 mg/mL dehydratase (GMD) enzyme, and 0 μM, 70 μM or 350 μM GDP-L-fucose. The reactions were quenched at 99° C. for 10 minutes, and the enzymes' respective activities were analyzed using the nucleotide sugar LC-MS method by GDP-4-keto-6-deoxymannose detection.

[3] = Dehydratase screening for GDP-L-fucose synthesis from GDP-L-galactose; format: biochemical
Protocol: Four enzymes were screened: At Gmd (SEQ ID NO: 5), Hs Gmd (SEQ ID NO: 9), Ec Gmd (SEQ ID NO: 11) and Yp DmhA (SEQ ID NO: 13), while Ec WcaG (SEQ ID NO: 7) is known to be a reductase. […] The reactions were incubated for 16 hours at 37° C., and then quenched by heating at 99° C. for 10 minutes. Samples were analyzed by both HPLC and LC-MS methods.

[4] = FKP activity towards L-galactose (GDP-L-galactose production); format: biochemical
Protocol: FKP naturally catalyzes the conversion of L-fucose into GDP-L-fucose. It has been reported that FKP also could generate GDP-L-galactose from L-galactose (Ohashi et al. 2017). FKP was cloned into pET21, expressed and purified as described in Example 1. The activity of FKP towards L-galactose was assayed under the following conditions: 2 mM L-galactose, 2 mM ATP, 2 mM GTP, 4 mM MgCl2, 50 mM Tris-HCl, pH 7.5 and with or without 0.25 g/L FKP. The samples were incubated at room temperature overnight, and quenched by heating at 99° C. for 10 minutes, and analyzed using LC-MS.
Further work was conducted to optimize the FKP reaction with L-galactose as the substrate, by varying reaction temperature, substrate concentrations, and adding an ATP/GTP regeneration system. The reaction conditions were: 50 mM Tris-HCl pH 7.5, 5 mM MgCl2, 5 mM L-galactose, 2 mM ATP, 2 mM GTP, 10 mM PEP, 1 U pyruvate kinase, and with or without 0.8 mg/mL FKP. The reaction was incubated at 37° C. for 44 hours. The reaction was quenched by heating at 99° C. for 10 minutes. The samples were analyzed using HPLC (FIG. 5).

[5] = Activity comparison of purified FutC enzymes; format: biochemical; conditions: 2 mM GDP-L-fucose, 40 mM lactose, 0.5 mg/mL FutC
Protocol: An assay was performed to compare the activity of the ASR11 and ASR12 enzymes to the activity of the parent construct, FutC #5 (SEQ ID NO: 29) and Helicobacter pylori FutC (HpFutC, SEQ ID NO: 61), an enzyme commonly used for 2′-FL production. Specifically, the assay conditions were: 2 mM GDP-L-fucose, 40 mM lactose, 50 mM Tris pH 7.5, and 0.5 mg/mL FutC.

[6] = ASR library activity screen in clarified E. coli lysate; format: biochemical; conditions: 1 mM GDP-L-fucose, 80 mM lactose
Protocol: (§1) The enzymes listed in Table 5 were expressed in E. coli, and the clarified lysate was normalized based on the OD600 standard curve and used to screen for activity. To the clarified lysate was added 50 mM Tris pH 7.5, 1 mM GDP-L-fucose, and 80 mM lactose, and the reactions were quenched by heating at 99° C. for 10 minutes, and analyzed using the 2′-FL HPLC method.

[7] = In vitro enzyme cascade converting L-galactose to 2′-FL; format: biochemical; conditions: 10 mM L-galactose, 0.2 g/L FutC, quenched at 3 hours and 22 hours
Protocol: The reaction conditions were: 50 mM Tris pH 7.5, 10 mM L-galactose, 2 mM ATP, 2 mM GTP, 25 mM acetyl phosphate, 5 mM magnesium chloride, 5 mM potassium chloride, 0.15 mM NADP^+, 0.5 mM NADPH, 40 mM lactose, 0.23 g/L […] (FKP, SEQ ID NO: 1), 0.06 g/L an acetate kinase for the ATP recycling system (Gs Ack, SEQ ID NO: 65), 0.3 g/L At GMD (SEQ ID NO: 79), 0.75 g/L WcaG (SEQ ID NO: 7) and 0.2 g/L ASR 12 (SEQ ID NO: 109). The reactions were quenched by heating at 99° C. […] and analyzed using the 2′-FL LC-MS method.

[8] = expressed in E. coli
Excerpt: One of the major limitations for 2′-FL production is FutC activity. After screening various FutC candidates as described in Example 5, the inventors sought to identify mutant FutC candidates with even higher activity and improved solubility using bioinformatics. Based on ancestral sequence reconstruction (ASR) analysis, a series of ASR mutants were designed (Table 5) and screened for their solubility and activity.
as §1

[9] = FutC candidate activity in vitro using the de novo synthesis pathway (2′-FL by HPLC); format: biochemical; conditions: 0.2 mg/mL fucosyltransferase, 1 mM GDP-mannose, 80 mM lactose, room temperature, 16 hours
Protocol: The final step in the novel path to 2′-FL requires an α-1,2-fucosyltransferase. Various FutC candidates were screened for soluble expression in E. coli and fucosyltransferase activity. The candidate enzymes show different solubilities and enzymatic activity for 2′-FL synthesis. For the candidates that have highly soluble expression, their activity was tested in vitro using the de novo synthesis pathway. The reaction conditions were: 50 mM Tris-HCl pH 8.0, 2 mM NADPH, 0.1 mM NADP^+, 1 mM GDP-mannose, 80 mM lactose, 0.9 mg/mL Ec Gmd (SEQ 11), 0.2 mg/mL Ec WcaG (SEQ ID NO: 7) and 0.2 mg/mL of the fucosyltransferase candidates. The reactions were incubated at room temperature for 16 hours. The reactions were quenched by heating at 99° C. for 10 minutes, and then analyzed by HPLC.

At GME: GDP-mannose-3,5-epimerase from Arabidopsis thaliana, SEQ ID NO: 3
GDP-mannose-3,5-epimerase activity [1]: higher activity than Os GME

B1: At WT: GDP-mannose-4,6-dehydratase from Arabidopsis thaliana, wild type, SEQ ID NO: 5 (protein, listed as Arabidopsis thaliana)
chain: MASENNGSRSDSESITAPKADSTVVEPRKIALITGITGQDGSYLTEFLLGKGYEVHGLIRRSSNFNTQRINHIYIDPHNVNKALMKLHYADLTDASSLRRWIDVIKPDEVYNLAAQSHVAVSFEIPDYTADVVATGALRLLEAVRSHTIDSGRTVKYYQAGSSEMFGSTPPPQSETTPFHPRSPYAASKCAAHWYTVNYREAYGLFACNGILFNHESPRRGENFVTRKITRALGRIKVGLQTKLFLGNLQASRDWGFAGDYVEAMWLMLQQEKPDDYVVATEEGHTVEEFLDVSFGYLGLNWKDYVEIDQRYFRPAEVDNLQGDASKAKEVLGWKPQVGFEKLVKMMVDEDLELAKREKVLVDAGYMDAKQQP
decrease in activity [2]: 95% | dehydratase activity towards GDP-L-galactose ([3]; 5 mM GDP-L-Gal, 2.4 g/L At Gmd, 3.2 g/L Ec WcaG, 16 hours, 37° C.): has dehydratase activity towards GDP-L-galactose | initial dehydratase activity ([3]; among four potential dehydratases screened): highest initial activity

B2: FKP: fucokinase/guanylyltransferase from Bacteroides fragilis, SEQ ID NO: 1 (protein, listed as Bacteroides fragilis)
chain: MQKLLSLPPNLVQSFHELERVNRTDWFCTSDPVGKKLGSGGGTSWLLEECYNEYSDGATFGEWLEKEKRILLHAGGQSRRLPGYAPSGKILTPVPVFRWERGQHLGQNLLSLQLPLYEKIMSLAPDKLHTLIASGDVYIRSEKPLQSIPEADVVCYGLWVDPSLATHHGVFASDRKHPEQLDFMLQKPSLAELESLSKTHLFLMDIGIWLLSDRAVEILMKRSHKESSEELKYYDLYSDFGLALGTHPRIEDEEVNTLSVAILPLPGGEFYHYGTSKELISSTLSVQNKVYDQRRIMHRKVKPNPAMFVQNAVVRIPLCAENADLWIENSHIGPKWKIASRHIITGVPENDWSLAVPAGVCVDVVPMGDKGFVARPYGLDDVFKGDLRDSKTTLTGIPFGEWMSKRGLSYTDLKGRTDDLQAASVFPMVNSVEELGLVLRWMLSEPELEEGKNIWLRSERFSADEISAGANLKRLYAQREEFRKGNWQALAVNHEKSVFYQLDLADAAEDFVRLGLDMPELLPEDALQMSRIHNRMLRARILKLDGKDYRPEEQAAFDLLRDGLLDGISNRKSTPKLDVYSDQIVWGRSPVRIDMAGGWTDTPPYSLYSGGNVVNLAIELNGQPPLQVYVKPCKDFHIVLRSIDMGAMEIVSTFDELQDYKKIGSPFSIPKAALSLAGFAPAFSAVSYASLEEQLKDFGAGIEVTLLAAIPAGSGLGTSSILASTVLGAINDFCGLAWDKNEICQRTLVLEQLLTTGGGWQDQYGGVLQGVKLLQTEAGFAQSPLVRWLPDHLFTHPEYKDCHLLYYTGITRTAKGILAEIVSSMFLNSSLHLNLLSEMKAHALDMNEAIQRGSFVEFGRLVGKTWEQNKALDSGTNPPAVEAIIDLIKDYTLGYKLPGAGGGGYLYMVAKDPQAAVRIRKILTENAPNPRARFVEMTLSDKGFQVSRS
conversion of L-galactose to GDP-L-galactose ([4]; 2 mM L-galactose, 0.25 g/L FKP, room temperature overnight, LC-MS): catalyzes the conversion of L-galactose to GDP-L-galactose | final titer of GDP-L-galactose ([4]; 5 mM L-galactose, 0.8 mg/mL FKP, PEP/pyruvate kinase regeneration, 37° C., 44 hours): 2.5 g/L

B3: ASR 12: FutC mutant from ancestral sequence reconstruction, SEQ ID NO: 109 (protein)
chain: MIIIRMSGGLGNQMFQYALYRKLKSMGKEVKIDDITGYEDDNQRSIMLDVFGIDYDKATKEEITKLTDSSMDFLSRIRRKLFGRKSKEYQEEDFNFDPQVLEMDDAYLEGYFQSEKYFQDVREQLRKEFTFRKNSVPELSEQTKELRKQIENSNSVSIHIRRGDYLENSHAEIYGGICTDDYYKKAIEYMKEKFPDAKFYIFSNDIEWAKQHFKGENFVIVDASEENTGYADMYLMSKCKHHIIANSSFSWWGAWLNDNPEKIVIAPSKWLNNKECKDIYTDRMIKIDAKGEVRSEDYGVRTNSTVK
modifications: ASR12
FutC activity compared to Hp FutC and parent FutC 5 [5]: outperformed Hp FutC as well as the parent construct | activity compared to the rest of the ASR library [6]: improved | 2′-FL production compared to FutC #5 and Hp FutC [7]: significantly higher | solubility compared to the rest of the ASR library [8]: improved

B4: FutC 18: α-1,2-fucosyltransferase candidate from Rhizobiales bacterium, SEQ ID NO: 55 (protein, listed as Rhizobiales bacterium)
chain: MIVTRIVGGLGNQMFQYAVGRALSAKTGQEFKLDLSEMDRYKVHALQLDQFNIKGVRAGRHEIPFRPRKSFFGKILTALKNRNRIPQVFETTPSFDPSVLQRKGSCYLSGYWQSEKYFSDCSELIRADFSLKGPMSDERQAVLSQIRDAEAPVSVHVRRGDYVTNTTANSIHGTCEPEWYRQAMRKISDRTGDPTFFVFSDDPMWARSNLPTYEKMVFVEPRADGKDAEDMHLMSSCQSHIIANSTFSWWGAWLNPRQDKRVIAPARWFRAEDRDSTDLVPAQWERL
α-1,2-fucosyltransferase activity for 2′-FL production [9]: have α-1,2-fucosyltransferase activity for 2′-FL production

B5: FutC13: α-1,2-fucosyltransferase candidate from Candidatus Brocadia sapporoensis, SEQ ID NO: 45 (protein)
chain: MQLKRWPQLKPTDAAVFGSGKQTIMIIVKLMGGLGNQMFQYAAGRRLAEKLGVKLKLDIEMFKDNTLRKYELGAFNIQECFAAVEEIERLTVVKRGIVEKALDRVFKRPIRRPGGYVAEKYFVFDPSILQLPDQVYLDGYWQSEKYFAEIETIIREEFTIKYPQTDKNKVLSDSIKSGNSVTVHVRRGDYVNNPETNSLHGVCGIDYYQRCIDFIITKIANPHFFFFSDDPEWVKNNLKIKYESTVVEHNGAEKCYEDLRLLSQGKYHIIANSTFSWWGAWLNKNPEKMVVAPEKWFKKEDVNTKGFIPEDWIRL
modifications: Candidatus Brocadia sapporoensis
α-1,2-fucosyltransferase activity for 2′-FL production [9]: have α-1,2-fucosyltransferase activity for 2′-FL production

From patent US20240093255A1, “BIOSYNTHETIC PRODUCTION OF 2-FUCOSYLLACTOSE” (Conagen Inc., priority 2020, published 2024)
